Test results taken from patent publication US20190144507A1 (GlaxoSmithKline, published 2019).

Target: T1, VZV gH (VZV (strain ), UniProt Q775J3 18-841)
T1 sequence: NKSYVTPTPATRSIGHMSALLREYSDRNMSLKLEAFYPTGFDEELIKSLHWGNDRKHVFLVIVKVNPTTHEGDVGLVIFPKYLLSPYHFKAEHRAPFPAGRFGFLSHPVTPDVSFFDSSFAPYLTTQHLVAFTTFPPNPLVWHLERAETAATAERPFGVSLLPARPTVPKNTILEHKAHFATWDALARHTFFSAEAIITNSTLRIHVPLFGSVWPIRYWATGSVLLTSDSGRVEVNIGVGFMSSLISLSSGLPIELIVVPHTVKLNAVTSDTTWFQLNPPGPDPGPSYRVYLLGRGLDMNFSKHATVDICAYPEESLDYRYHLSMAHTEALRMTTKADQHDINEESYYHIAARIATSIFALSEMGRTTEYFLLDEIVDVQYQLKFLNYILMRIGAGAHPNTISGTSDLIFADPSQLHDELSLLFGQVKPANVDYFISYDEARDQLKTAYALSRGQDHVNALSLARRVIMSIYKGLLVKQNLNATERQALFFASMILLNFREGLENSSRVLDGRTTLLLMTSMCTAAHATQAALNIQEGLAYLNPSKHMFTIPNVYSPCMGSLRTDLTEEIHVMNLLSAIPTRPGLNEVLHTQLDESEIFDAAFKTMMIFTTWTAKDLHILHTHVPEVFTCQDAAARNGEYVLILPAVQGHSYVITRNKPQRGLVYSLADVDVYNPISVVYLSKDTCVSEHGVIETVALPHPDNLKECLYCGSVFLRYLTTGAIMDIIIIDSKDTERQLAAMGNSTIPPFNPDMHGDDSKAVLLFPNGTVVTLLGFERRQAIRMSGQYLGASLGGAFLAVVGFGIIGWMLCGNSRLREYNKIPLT
Test: immunofluorescence with antibody SG3 on transfected BHK-V cells

B1: VZV gL (other)
chain: LHLQDDTPLFFGAKPLSDVSLIITEPCVSSVYEAWDYAAPPVSNLSEALSGIVVKTKCPVPEVILWFKDKQMAYWTNPYVTLKGLTQSVGEEHKSGDIRDALLDALSGVWVDSTPSSTNIPENGCVWGADRLFQRVCQ
B1: binds.
